Data reported in patent US5891679A, “TNF-alpha muteins and a process for preparing them” (priority 1993, dated 1999).
“Also recorded” adds a separate entry of the source.

Columns and labels:
L929 cells [1] = conditions: cited from earlier work
LPS-induced shock = conditions: cited from earlier work
L929 cells [2] = test: L929 cell killing (cytotoxic/cytolytic/tumoricidal) assay; type: cell-based, mouse
Procedure: L929 fibrosarcoma cells were obtained from the Rega Institute, Leuven, Belgium.
After 18 h of culture at 37° C., viability of the cell cultures was assessed by dye uptake analysis. […] The plates were read spectrophotometrically at 577 nm with a Titertek multiscan MCC340 ELISA Reader (Flow Laboratories, McLean, Va.).

[3] = system: Trypanosoma brucei brucei; test: In vitro trypanocidal assay, T. brucei brucei; type: cell-based; conditions: for mortality of trypanosomes: data not shown
Procedure: (§1) The Trypanosoma brucei brucei AnTat 1.1 (EATRO 1125) pleomorphic bloodstream form was kindly provided to us by Dr. N. Van Meirvenne of the Institute for Tropical Medecine, Antwerp, Belgium, and the Trypanosoma brucei rhodesiense Trp 11 pleomorphic bloodstream form was kindly provided to us by Dr. E. Bajyana Songa (Dept. Molecular Biology, Free University of Brussels, Belgium)
(§2) After 5 h of incubation, the number of live (=moving) parasites was assessed (counting chamber) and compared the control wells in which only incubation medium was added to the trypanosomes. […] All treatments were done in quadruplicate and all reported in vitro trypanolysis experiments were repeated at least 3 times.

[4] = system: Trypanosoma brucei rhodesiense; test: In vitro trypanocidal assay, T. brucei rhodesiense; type: cell-based; conditions: 5 h; for mortality of trypanosomes: data not shown
Procedure: as §1, §2

C57BL/6 mice = test: TNF-α-induced lethal shock in mice; type: in vivo, mouse (C57BL/6)
Procedure: Female 10-weeks old C57BL/6 mice (Iffa Credo, France) were used in all in vivo TNF-induced lethal shock experiments.
Intravenous (i.v.) injection of 10-week-old C57BL/6 mice with 10 μg/mouse of mTNF-α causes death within 48 hours.
Ten weeks old C57BL/6 mice (5 to 6/group) were injected with different doses of wild type or mutant mouse TNF-α and the postinjection survival time was then assessed.

[5] = system: human interleukin-6 (IL6); test: IL6 production by hMVECb cells; type: cell-based; conditions: 24 hours
Procedure: Subsequently, the IL6 concentration in the supernatant of the cells was assessed using a commercially available hIL6 ELISA kit (Medgenix, Belgium).

[6] = system: human interleukin 8 (IL8); test: IL8 production by hMVECb cells; type: cell-based; conditions: 24 hours
[7] = system: 3LL-R Lewis lung carcinoma cells; test: Experimental metastasis inducing capacity on TNF resistant 3LL-R Lewis lung carcinoma cells; type: in vivo, mouse (C57bl/6); conditions: 17 days
Procedure: At this time, all mice were killed and the lung weight as well as the amount of cancer cell nodules in the lung was assessed.

[8] = In vivo half life of wild type and tip-deleted TNF-α (serum concentration); conditions: 1 μg/mouse i.p.
Procedure: An ELISA assay to measure the protein concentration of the wild type and tip-deleted or tip-mutated mouse TNF-α protein was developed. […] Subsequently, the plates were washed once with washing buffer (PBS, 0.05% Tween-20) and the remaining binding sites were blocked for at least one hour at 37° C. with 300 μl per well of PBS buffer supplemented with 1% BSA and 0.1% NaN3. Dilutions of sample or standard mTNF-α (0.01 to 10 ng/ml mTNF-α), made in 100 μl of PBS supplemented with 1% BSA, 1% rabbit serum, and 0.1% mertiolate are then added to each well and incubated for 2 hours at 37° C. […] Subsequently, the plates are washed four times with washing buffer wherafter 100 μl of straptavidin-horseradish peroxidase (Jackson Immunoresearch Labs), which has been diluted in sample diluent to a concentration of 100 ng/ml is added and incubated for 30 minutes at 37° C. […] The reaction is stopped by adding 100 μl per well of 2N H2SO4 wherafter the optical density is read at dual wavelength (450/595 nm).
Female 8 weeks old C57bL/6 mice (6 mice/group--Charles Rivers Deutshland) were injected intraperitoneally with 1 μg/mouse of either wild type mouse TNF-α or tip deleted TNF-α. Subsequently, the mice were bled 0.5, 5, 10, 15, 30, 60, 120, 180, or 240 minutes post-injection.

[9] = mTNF-α 1000 pg/ml, +p55 (5 μg/ml)
[10] = mTNF-α 10000 pg/ml, +p55 (5 μg/ml)

Molecule: uromodulin: glycoprotein which binds TNF-α via its lectin-like domain
- effect on TNF-α cytotoxic/tumoricidal activity (L929 cells [1]): does not block the tumoricidal activity of TNF-α
- effect on LPS-/TNF-/endotoxin-induced shock in vivo (LPS-induced shock): able to potently inhibit the TNF-induced shock in vivo; also recorded: able to potently inhibit the LPS-induced shock in vivo

Molecule: mTNF-α: Purified recombinant mouse tumor necrosis factor-alpha, produced in E. coli
- specific activity (L929 cells [2]; bioactivity on L929 cells, purified wild type): ~2×10^8 U/mg
- Tumoricidal activity (% lysis) (L929 cells [2]; mTNF-α 100 pg/ml, +p55 (5 μg/ml)): 0 ± 1%
- Tumoricidal activity (% lysis) (L929 cells [2]; mTNF-α 100 pg/ml, -p55): 40 ± 2%
- Tumoricidal activity (% lysis) (L929 cells [2]; [9]): 0 ± 1%
- Tumoricidal activity (% lysis) (L929 cells [2]; mTNF-α 1000 pg/ml, -p55): 92 ± 3%
- Tumoricidal activity (% lysis) (L929 cells [2]; [10]): 93 ± 3%
- Tumoricidal activity (% lysis) (L929 cells [2]; mTNF-α 10000 pg/ml, -p55): 98 ± 4%
- specific activity (L929 cells [2]; purified recombinant, produced in E. coli, assay not stated): 10^8 units/mg
- concentration at which 50% of the animals (parasites) are killed ([3]; T. brucei brucei, 5 h): 5000 pg/mL
- trypanocidal specific activity ([3]; in vitro trypanocidal assay): 2×10^5 U/mg of protein
- Trypanocidal activity (% lysis) ([3]; mTNF-α 100 pg/ml, +p55 (5 μg/ml soluble p55 hTNF-α receptor)): 25 ± 3%
- Trypanocidal activity (% lysis) ([3]; mTNF-α 100 pg/ml, -p55): 30 ± 2%
- Trypanocidal activity (% lysis) [3, 9]: 41 ± 4%
- Trypanocidal activity (% lysis) ([3]; mTNF-α 1000 pg/ml, -p55): 45 ± 5%
- Trypanocidal activity (% lysis) [3, 10]: 56 ± 3%
- Trypanocidal activity (% lysis) ([3]; mTNF-α 10000 pg/ml, -p55): 60 ± 4%
- concentration at which 50% of the animals (parasites) are killed [4]: 5000 pg/mL
- lethal dose (C57BL/6 mice; C57BL/6 mice): 10 μg/mouse
- time to death (C57BL/6 mice; i.v. 10 μg/mouse): ≤ 48 h
- IL6 concentration ([5]; 333 pg/ml, experiment 1): 1520 pg/mL
- IL6 concentration ([5]; 333 pg/ml, experiment 2): 1900 pg/mL
- IL6 concentration ([5]; 1000 pg/ml, experiment 1): 1250 pg/mL
- IL6 concentration ([5]; 1000 pg/ml, experiment 2): 1400 pg/mL
- IL6 concentration ([5]; 1666 pg/ml, experiment 1): 1220 pg/mL
- IL6 concentration ([5]; 1666 pg/ml, experiment 2): 1300 pg/mL
- IL8 concentration ([6]; 333 pg/ml, experiment 1): 1050 pg/mL
- IL8 concentration ([6]; 333 pg/ml, experiment 2): 1700 pg/mL
- IL8 concentration ([6]; 1000 pg/ml, experiment 1): 1680 pg/mL
- IL8 concentration ([6]; 1000 pg/ml, experiment 2): 1800 pg/mL
- IL8 concentration ([6]; 1666 pg/ml, experiment 1): 1200 pg/mL
- IL8 concentration ([6]; 1666 pg/ml, experiment 2): 1650 pg/mL
- general condition of mice [7]: all suffered from severe respiration problems
- mean lung weight ([7]; 5 μg/mouse i.p. 5 hours prior to 3LL-R cells): 1088.2 ± 315.7
- concentration TNF-α ([8]; Experiment 1, 0.5 minutes): 1000 ng/mL
- concentration TNF-α ([8]; Experiment 1, 5 minutes): 880 ng/mL
- concentration TNF-α ([8]; Experiment 1, 10 minutes): 650 ng/mL
- concentration TNF-α ([8]; Experiment 1, 15 minutes): 500 ng/mL
- concentration TNF-α ([8]; Experiment 1, 30 minutes): 420 ng/mL
- concentration TNF-α ([8]; Experiment 1, 60 minutes): 320 ng/mL
- concentration TNF-α ([8]; Experiment 1, 120 minutes): 20 ng/mL
- concentration TNF-α ([8]; Experiment 1, 180 minutes): 10 ng/mL
- concentration TNF-α ([8]; Experiment 1, 240 minutes): 0 ng/mL
- concentration TNF-α ([8]; Experiment 2, 0.5 minutes): 1000 ng/mL
- concentration TNF-α ([8]; Experiment 2, 15 minutes): 550 ng/mL
- concentration TNF-α ([8]; Experiment 2, 30 minutes): 500 ng/mL
- concentration TNF-α ([8]; Experiment 2, 60 minutes): 480 ng/mL
- concentration TNF-α ([8]; Experiment 2, 120 minutes): 20 ng/mL
- concentration TNF-α ([8]; Experiment 2, 180 minutes): 0 ng/mL
- concentration TNF-α ([8]; Experiment 2, 240 minutes): 0 ng/mL

B1: hTNF-β: Human recombinant TNF-β (lymphotoxin) (protein, UniProt P01374 35-205, looked up)
Lymphotoxin-alpha: LPGVGLTPSAAQTARQHPKMHLAHSTLKPAAHLIGDPSKQNSLLWRANTDRAFLQDGFSLSNNSLLVPTSGIYFVYSQVVFSGKAYSPKATSSPLYLAHEVQLFSSQYPFHVPLLSSQKMVYPGLQEPWLHSMYHGAAFQLTQGDQLSTHTDGIPHLVLSPSTVFFGAFAL
- mortality of trypanosomes ([3]; T. brucei brucei, 5 h): do not cause any mortality
- mortality of trypanosomes [4]: do not cause any mortality

B2: mouse interleukin 1β: mouse interleukin 1β (protein, UniProt P10749 118-269, looked up)
Interleukin-1 beta: VPIRQLHYRLRDEQQKSLVLSDPYELKALHLNGQNINQQVIFSMSFVQGEPSNDKIPVALGLKGKNLYLSCVMKDGTPTLQLESVDPKQYPKKKMEKRFVFNKIEVKSKVEFESAEFPNWYISTSQAEHKPVFLGNNSGQDIIDFTMESVSS
- mortality of trypanosomes ([3]; T. brucei brucei, 5 h): do not cause any mortality
- mortality of trypanosomes [4]: do not cause any mortality

B3: mouse interleukin 1α: mouse interleukin 1α (protein, UniProt P01582 115-270, looked up)
Interleukin-1 alpha: SAPYTYQSDLRYKLMKLVRQKFVMNDSLNQTIYQDVDKHYLSTTWLNDLQQEVKFDMYAYSSGGDDSKYPVTLKISDSQLFVSAQGEDQPVLLKELPETPKLITGSETDLIFFWKSINSKNYFTSAAYPELFIATKEQSRVHLARGLPSMTDFQIS
- mortality of trypanosomes ([3]; T. brucei brucei, 5 h): do not cause any mortality
- mortality of trypanosomes [4]: do not cause any mortality
